Experimental data reported in patent publication US7501273B2, “Peptidylarginine deiminase 6” (N.V. Organon, priority 2001, dated 2009).

Tested on: Soybean Trypsin Inhibitor (STI)
Experiment: Determination of PAD6 enzyme activity: citrullination of STI, read out as trypsin activity on a fluorescent substrate
Format: biochemical
Conditions: 0.5 or 1.0 μg GST-PAD6, 0.17 μg STI, 30 minutes at 37° C., 5 mM CaCl2; FIG. 5
From the text: Another example of determining the enzymatic activity of PAD6 makes use of the inactivation of a protein e.g. Soybean Trypsin Inhibitor (STI) (Talcahara, H. et al. 1985, J. Biol. Chem. 260, 8378–8383. When an essential arginine in STI is converted into citrulline it is no longer able to inhibit the proteolytic activity of trypsin. This can be used as the basis for a two-step assay for the determination of PAD activity. The assay consists of two steps. In the first reaction PAD converts the arginine (position 63) in STI into a citrulline inactivating the STI. In the second reaction trypsin and a fluorescent substrate are added and trypsin activity is measured.
FIG. 5 Fluorescence measurement to determine PAD activity. STI (0.17 μg) was pre-incubated in the absence (filled square) or presence of 0.5 μg GST-PAD6 (filled triangle), 1.0 μg GST-PAD6 (open triangle), or 0.1 μg rabbit muscle PAD (open square; Sigma cat. No P1584) respectively. Subsequently, Nα-benzoyl-L-Arginine-7-amido-4-methylcoumarin (100 μM; Sigma cat. No. B7260) and trypsin (0.25 μg) were added, and fluorescence determined.
The activity of the PAD was determined by the formation of citrulline in Soybean Trypsin Inhibitor (STI) as a substrate. […] Therefore, an increased activity of trypsin, as detected with a fluorescent trypsin substrate, indicates PAD activity. […]

B1: PAD6: Recombinant full-length human peptidylarginine deiminase 6 (SEQ ID NO:3) expressed in E. coli as GST fusion protein (protein)
chain: MSFQSIIHLSLDSPVHAVCVLGTEICLDLSGCAPQKCQCFTIHGSGRVLIDVANTVISEKEDATIWWPLSDPTYATVKMTSPSPSVDADKVSVTYYGPNEDAPVGTAVLYLTGIEVSLEVDIYRNGQVEMSSDKQAKKKWIWGPSGWGAILLVNCNPADVGQQLEDKKTKKVIFSEEITNLSQMTLNVQGPSCILKKYRLVLHTSKEESKKARVYWPQKDNSSTFELVLGPDQHAYTLALLGNHLKETFYVEAIAFPSAEFSGLISYSVSLVEESQDPSIPETVLYKDTVVFRVAPCVFIPCTQVPLEVYLCRELQLQGFVDTVTKLSEKSNSQVASVYEDPNRLGRWLQDEMAFCYTQAPHKTTSLILDTPQAADLDEFPMKYSLSPGIGYMIQDTEDHKVASMDSIGNLMVSPPVKVQGKEYPLGRVLIGSSFYPSAEGRAMSKTLRDFLYAQQVQAPVELYSDWLMTGHVDEFMCFIPTDDKNEGKKGFLLLLASPSACYKLFREKQKEGYGDALLFDELRADQLLSNGREAKTIDQLLADESLKKQNEYVEKCIHLNRDILKTELGLVEQDIIEIPQLFCLEKLTNIPSDQQPKRSFARPYFPDLLRMIVMGKNLGIPKPFGPQIKGTCCLEEKICCLLEPLGFKCTFINDFDCYLTEVGDICACANIRRVPFAFKWWKMVP
modifications: left off: a dimerising Fc or GST
PAD activity (increased trypsin activity, fluorescence): could be detected
